{"source": "patent US20180371460", "about": "“Depletion of Abundant Serum Proteins to Facilitate Biomarker Discovery” (UNIVERSITY OF UTAH RESEARCH FOUNDATION, published 2018)", "binders": {"B1": {"name": "19 (ssDNA)", "DNA": "GCGCATACCAGCTTATTCAATTAACGTGTAGAGGTGTTCACGCACCACGCCGACTGTGGTTGACCCACAGTTAGATAGTAAGTGCAATCTCGGC"}, "B2": {"name": "H3 (ssDNA)", "DNA": "GCGCATACCAGCTTATTCAATTGATCCATACAAGGGTAGGTTGACTTCCGCCCAAGGGGGCGAGGCCGTGAGATAGTAAGTGCAATCTCGGC"}, "B3": {"name": "H1 (ssDNA)", "DNA": "GCGCATACCAGCTTATTCAATTACGCTCAGGACTAAAAATGGGCGTGACCATGAGCTCAGTATGGGCGTTACAGATAGTAAGTGCAATCTCGGC"}, "B4": {"name": "H2 (ssDNA)", "DNA": "GCGCATACCAGCTTATTCAATTTCAAAGGCTGACCGGATGGGCTTCGTGACCGGGTACGCCACTGCCTCGTGAGATAGTAAGTGCAATCTCGGC"}, "B5": {"name": "H6 (ssDNA)", "DNA": "GCGCATACCAGCTTATTCAATTGCGTACCTAGGATTTACTTTCTCAAGATATTTGGAGTGACAAGTGGCATAAGATAGTAAGTGCAATCTCGGC"}, "B6": {"name": "36 (ssDNA)", "DNA": "GCGCATACCAGCTTATTCAATTCGGATAGACAACATGGGGAAGAACAGTGTCTAGTCGTGGGTTGCTCTGTAAGATAGTAAGTGCAATCTCGGC"}, "B7": {"name": "H5 (ssDNA)", "DNA": "GCGCATACCAGCTTATTCAATTAGGAACGCACCCGAGTGTTGCGCGAGCCAGTGGCTGGTTGGCCCGTATAAGATAGTAAGTGCAATCTCGGC"}, "B8": {"name": "40 (ssDNA)", "DNA": "GCGCATACCAGCTTATTCAATTCGGTAGTGCAGCGGCTTGAAATCAGCCGTGCTTTCGGGACGGAACTACTCAGATAGTAAGTGCAATCTCGGC"}, "B9": {"name": "35 (ssDNA)", "DNA": "GCGCATACCAGCTTATTCAATTCGGTACGTGACGCAAAAAAGGTCGGGCGGCTGACATGGCACCTCGTCTAAAGATAGTAAGTGCAATCTCGGC"}, "B10": {"name": "P1 (ssDNA)", "DNA": "GCGCATACCAGCTTATTCAATTGCATAGTCATGCGGGAATAGTTTTCGATGAGGGCTATTGGAGGCCCCAGCAGATAGTAAGTGCAATCTCGGC"}}, "key": {"[1]": {"biological_target": "T1, Human serum albumin (HSA), denatured (Homo sapiens, UniProt P02768 P02768:25-609)", "T1 sequence (P02768 25-609, one chain of several)": "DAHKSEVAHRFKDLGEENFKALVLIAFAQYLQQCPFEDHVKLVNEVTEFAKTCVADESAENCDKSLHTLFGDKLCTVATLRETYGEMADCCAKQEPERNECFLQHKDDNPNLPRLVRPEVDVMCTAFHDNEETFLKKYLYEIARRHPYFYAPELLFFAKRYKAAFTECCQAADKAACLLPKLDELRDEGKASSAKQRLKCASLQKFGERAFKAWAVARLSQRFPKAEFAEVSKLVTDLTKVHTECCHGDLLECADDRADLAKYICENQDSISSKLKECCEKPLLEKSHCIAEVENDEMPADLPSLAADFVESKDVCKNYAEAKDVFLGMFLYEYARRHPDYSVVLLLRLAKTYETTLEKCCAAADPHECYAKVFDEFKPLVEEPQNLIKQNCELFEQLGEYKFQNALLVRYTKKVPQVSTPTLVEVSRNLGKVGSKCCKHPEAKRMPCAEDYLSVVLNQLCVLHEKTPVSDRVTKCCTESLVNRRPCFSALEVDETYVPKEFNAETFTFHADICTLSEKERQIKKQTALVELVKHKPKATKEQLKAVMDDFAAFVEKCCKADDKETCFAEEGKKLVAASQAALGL", "test": "pulldown; 1% surfactant, 50 mM DTT or 25 mM TCEP, PBS pH 7.4, 40 ug/mL HSA", "conditions": "tags: none; denatured with 1% surfactant and reduced with DTT or TCEP; label: 5'-fluorescein (gel shift) or 5'-thiol-hexaethylene glycol on agarose (pull-down)", "protocol": "The beads were equilibrated with 3 bed volumes of the binding buffer used during the pull-down prior to protein addition. Protein (40 μg/mL) was then added to the columns and placed on a nutating mixer for 45 min followed by 15 minutes of stationary incubation. The supernatant was then collected via centrifugation. The resin was then washed twice with 700 μL binding buffer, collecting the flow-through each time. Bound protein was then eluted using 300 μL 4 M urea with 0.1% surfactant and repeated to recover all bound protein. For each elution, the column was placed on a nutating mixer for 30 min. The A280 was then measured for each aliquot to determine the percent bound."}, "[2]": {"biological_target": "T1, Human serum albumin (HSA), denatured", "test": "EMSA; tested in lane 6, not listed among binders; PBS pH 6, 50 mM DTT, 1% SDS", "conditions": "tags: none; denatured with 1% surfactant and reduced with DTT or TCEP; label: 5'-fluorescein", "protocol": "(§1) Gel shift assays were then performed to determine which of these nucleic acids would bind to HSA under denaturing and reducing conditions. Specifically, 40 nmol of the fluorescein labeled DNA was incubated with 3 μM denatured HSA in PBS (pH=6) containing 50 mM fresh DTT and 1% SDS at room temperature for 1 hr. The samples were then run on an 8% nondenaturing gel (PBS pH=6, 0.1% SDS) at 100 V for 1 hour at 4° C. The gels were imaged using a Typhoon FLA 9500 gel imager using a 473 nm laser and an LPB filter. FIG. 12 is a representative gel showing the results of the gel shaft assays for the fluorescein labeled forms of the following nucleic acids: 35 (lane 1), 36 (lane 2), 40 (lane 3), H1 (lane 4), H2 (lane 5), H3 (lane 6) and H5 (lane 7)."}, "[3]": {"biological_target": "T1, Human serum albumin (HSA), denatured", "test": "EMSA; tested in lane 4, not listed among binders; PBS pH 6, 50 mM DTT, 1% SDS", "conditions": "tags: none; denatured with 1% surfactant and reduced with DTT or TCEP; label: 5'-fluorescein", "protocol": "as §1"}, "[4]": {"biological_target": "T1, Human serum albumin (HSA), denatured", "test": "EMSA; tested in lane 5, not listed among binders; PBS pH 6, 50 mM DTT, 1% SDS", "conditions": "tags: none; denatured with 1% surfactant and reduced with DTT or TCEP; label: 5'-fluorescein", "protocol": "as §1"}, "[5]": {"biological_target": "T1, Human serum albumin (HSA), denatured", "test": "pulldown; 1% SDS or Tween 80 with 50 mM DTT, or 1% Tween 80 with 25 mM TCEP, PBS pH 7.4; blank beads control", "conditions": "tags: none; denatured with 1% surfactant and reduced with DTT or TCEP; label: 5'-fluorescein (gel shift) or 5'-thiol-hexaethylene glycol on magnetic beads (pull-down)", "protocol": "Pull-down. HSA (2 mg/mL from Gemini) was denatured in 1% surfactant (either Tween 80 or SDS) and 50 mM DTT in PBS (pH=7.4) for 1 hr. The binding buffers consisted of 50 mM freshly prepared DTT. The beads were equilibrated with 2 mL of the binding buffer used during the pull-down prior to protein addition. Protein (40 μg/mL) was then added to the columns and these were placed on a nutating mixer for 1 hr. The samples were then placed on the magnetic separation stand for 4 min, and the supernatant was removed. The beads were then washed twice with 1 mL binding buffer, collecting the supernatant each time. Bound protein was eluted using 300 μL of 4M urea with 0.1% surfactant and repeated to recover all bound protein. For each elution, the beads were incubated at 95° C. for 10 min. The beads were regenerated by rinsing with 1 mL of 1M NaCl followed by 2 mL of PBS. They were then stored in PBS in the refrigerator.\nThe aliquots were then concentrated using a 10 kDa Amicon spin filter. The samples were run on a NuPAGE™ Novex™ 4-12% Bis-Tris protein gel at 200 V for 40 min and stained with Spyro Ruby. The gels were visualized with a Typhoon FLA 9500 gel imager using a 473 nm laser and an LPG filter. FIG. 13 is a gel showing the results of the pull down (using nucleic acid 36) of HSA denatured with SDS (upper image) or Tween 80 (lower image) and reduced with DTT.\nHSA binding with TCEP. […]"}, "[6]": {"biological_target": "T1, Human serum albumin (HSA), denatured", "test": "EMSA; tested in lane 7, not listed among binders; PBS pH 6, 50 mM DTT, 1% SDS", "conditions": "tags: none; denatured with 1% surfactant and reduced with DTT or TCEP; label: 5'-fluorescein", "protocol": "as §1"}, "[7]": {"biological_target": "T1, Human serum albumin (HSA), denatured", "test": "EMSA; tested in lane 1, not listed among binders; PBS pH 6, 50 mM DTT, 1% SDS", "conditions": "tags: none; denatured with 1% surfactant and reduced with DTT or TCEP; label: 5'-fluorescein", "protocol": "as §1"}}, "data": [{"binder": "B1", "values": [{"measurement": "binding signal", "setting": "[1]", "result": 10.3, "unit": "% HSA bound"}]}, {"binder": "B2", "values": [{"measurement": "binding result", "setting": "[2]", "result": "no binding"}]}, {"binder": "B3", "values": [{"measurement": "binding result", "setting": "[3]", "result": "no binding"}]}, {"binder": "B4", "values": [{"measurement": "binding result", "setting": "[4]", "result": "no binding"}]}, {"binder": "B5", "values": [{"measurement": "binding signal", "setting": "[1]", "result": 10, "unit": "% HSA bound"}]}, {"binder": "B6", "values": [{"measurement": "binding result", "setting": "[5]", "result": "binds"}]}, {"binder": "B7", "values": [{"measurement": "binding result", "setting": "[6]", "result": "no binding"}]}, {"binder": "B8", "values": [{"measurement": "binding signal", "setting": "[1]", "result": 10.3, "unit": "% HSA bound"}]}, {"binder": "B9", "values": [{"measurement": "binding result", "setting": "[7]", "result": "no binding"}]}, {"binder": "B10", "values": [{"measurement": "binding signal", "setting": "[1]", "result": 12.7, "unit": "% HSA bound"}]}]}
